Measured values as given in patent publication US20120322975A1.

Columns and labels:
[1] = target: dog factor D (in dog serum) (dog); experiment: cell-based or functional assay; settings: scale: times less effective than on human factor D
[2] = target: human factor D (purified from human serum) (human) (UniProt P00746); experiment: cell-based or functional assay
Chain of UniProt P00746 (P00746 26-253 N180D): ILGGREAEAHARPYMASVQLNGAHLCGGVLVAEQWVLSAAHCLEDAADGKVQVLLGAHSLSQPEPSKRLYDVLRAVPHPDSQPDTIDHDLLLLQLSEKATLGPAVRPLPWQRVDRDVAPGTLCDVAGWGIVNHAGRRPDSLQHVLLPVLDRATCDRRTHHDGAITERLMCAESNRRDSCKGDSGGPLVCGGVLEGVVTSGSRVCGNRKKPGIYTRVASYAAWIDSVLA

MAb 166-32 (antibody) was tested, and the neutralization of dog factor D in hemolytic assays, compared to human factor D [1] was greater than 10, the alternative pathway hemolytic activity of plasma from extracorporeal circuits (18 µg/ml antibody in human whole blood) (molar ratio (MAb:factor D)) [2] was 1.5 and the inhibition of factor D dependent alternative pathway hemolysis of unsensitized rabbit RBCs (factor D depleted serum with supplemented factor D) [2] was 0.3 µg/mL.
